In patent US20220112269A1 (WISCONSIN ALUMNI RESEARCH FOUNDATION, published 2022):
Changes are numbered by the printed parent chain. Names may count otherwise. Non-standard residues stand in square brackets, D forms with d. No end group written: not given here. Hyp = O=C(O)[C@@H]1C[C@@H](O)CN1

How the values were obtained:
[1] = target: the molecule itself; test: CD, DLS, rheology, self-assembly
AUC, CD, self-assembly = target: the molecule itself; test: AUC, CD, self-assembly
[2] = target: the molecule itself; test: CD, TEM, DLS, self-association without fibers
[3] = target: the molecule itself; test: CD, TEM, DLS, rheology, self-assembly
CD, TEM, self-assembly = target: the molecule itself; test: CD, TEM, self-assembly
[4] = target: the molecule itself; test: AUC, CD, AFM, TEM, self-assembly
[5] = target: the molecule itself; test: AUC, CD, DLS, self-assembly
[6] = target: the molecule itself; test: sedimentation equilibrium AUC, monomer + multimer model, 15000 rpm, 4 C; self-assembly, lower bound
Experimental: Sedimentation equilibrium experiments were performed at the UW BIF with an XL-A analytical ultracentrifuge from Beckman Coulter (Brea, Calif.) equipped with an An-60 Ti rotor. Samples were prepared at 0.6 mg/mL in 10 mM sodium phosphate buffer, pH 7.0, but were diluted to 0.3 mg/mL prior to the experiment. Sample (100 μL) and matching buffer (110 μL) were placed in a cell with an Epon 12-mm double-sector charcoal-filled centerpiece from Beckman Coulter. Experiments were run at 4° C. for more than 7 days at speeds of 8.8, 15, 25, 36, and 60 k rpm, and gradients recorded at 231 nm were monitored until superimposable 4 h apart. A buffer density of 1.0011 g/mL and a partial specific volume of 0.6955 mL/g calculated based on amino-acid content was used for analysis. Equilibrium gradients at 4° C. were modeled as single and multiple non-interacting species through nonlinear least-squares fits to gradient data. Analysis was performed with programs written for IGOR PRO software from WaveMetrics (Lake Oswego, Oreg.) by Dr. D. R. McCaslin (UW BIF). Non-sedimenting baselines between 0.04-0.07 OD were applied for all samples during analysis.

CD, DLS, self-assembly = target: the molecule itself; test: CD, DLS, self-assembly
[7] = target: the molecule itself; test: CD, TEM, DLS, self-assembly of the disulfide-linked dimer
[8] = target: the molecule itself; test: CD, TEM, DLS, self-assembly

P[Hyp]GP[Hyp]GP[Hyp]GPKGPKGPKGP[Hyp]GPKGP[Hyp]GD[Hyp]GD[Hyp]GD[Hyp]GP[Hyp]GD[Hyp]G (nT=14) [4sbG-gap4]
binding result [1]: binds

PKGPKGPKGP[Hyp]GP[Hyp]GD[Hyp]GD[Hyp]GD[Hyp]GP[Hyp]GP[Hyp]GP[Hyp]G (nT=11) [3sbG-KDO]
binding result (AUC, CD, self-assembly): binds

P[Hyp]GP[Hyp]GPKGPKGPKGP[Hyp]GPKGP[Hyp]GP[Hyp]GD[Hyp]GP[Hyp]GD[Hyp]GD[Hyp]GD[Hyp]G (nT=14) [4sbG-OKD2ctrl]
binding result [2]: binds

P[Hyp]GP[Hyp]GPKGPKGPKGPKGP[Hyp]GP[Hyp]GD[Hyp]GD[Hyp]GD[Hyp]GD[Hyp]GP[Hyp]GP[Hyp]G (nT=14) [4sbG-OKDO]
binding result [3]: binds

P[Hyp]GP[Hyp]GP[Hyp]GPKGPKGPKGP[Hyp]GP[Hyp]GD[Hyp]GD[Hyp]GD[Hyp]G (nT=11) [3sbG-OKD]
binding result (CD, TEM, self-assembly): binds

P[Hyp]GP[Hyp]GP[Hyp]GP[Hyp]GPKGPKGPKGPKGP[Hyp]GP[Hyp]GD[Hyp]GD[Hyp]GD[Hyp]GD[Hyp] (nT=14, printed without the last Gly) [4sb-OKD]
binding result [4]: binds

PKGPKGPKGP[Hyp]GP[Hyp]GD[Hyp]GD[Hyp]GD[Hyp]GP[Hyp]GP[Hyp]GP[Hyp] (not fully specified (C-terminus), nT=11, printed without the last Gly) [3sb-KDO]
binding result [5]: binds

B1: 4sbG-OKD ("OKD") (peptide)
peptide: PXGPXGPXGPXGPKGPKGPKGPKGPXGPXGDXGDXGDXGDXG
modifications: O = 4-hydroxyproline (Hyp)
notes: Synthetic 42-residue collagen-mimetic peptide (nT=14)
Average oligomerization by AUC [6]: > 188 -mer

PXGPXGPCGPKGPKGPKGPKGPXGPXGDXGDXGDXGDXGPXG (O = 4-hydroxyproline (Hyp), Single Cys-bearing peptide, nT=14) [OKD2-C8]
binding result (CD, DLS, self-assembly): binds

PXGPXGPXGPKGPKGPKGPKGPXGPXGDXGDXGDXGDXGPXG (O = 4-hydroxyproline (Hyp), nT=14) [4sbG-OKD2]
binding result [3]: binds

PXGPXGPXGPKGPKGPKGPKGXXGPXGDXGDXGDXGDXGPXG (O = 4-hydroxyproline (Hyp); Hcy = homocysteine, Single Hcy-bearing peptide, nT=14) [OKD2-h22]
binding result (CD, DLS, self-assembly): binds

B2: OKD2-OKD2 (peptide)
chain 1: B1 peptide with X11K, P22X, K23X, P28D, D40P
chain 2: B1 peptide with X8C, X11K, K23X, P28D, D40P
modifications: O = 4-hydroxyproline (Hyp); Cys in an interstrand disulfide bridge with Hcy of the other chain; O = 4-hydroxyproline (Hyp); Hcy = homocysteine, in an interstrand disulfide bridge with Cys of the other chain
notes: Disulfide-linked dimer (nT 14-14)
binding result [7]: binds

P[Hyp]GP[Hyp]GP[Hyp]GPKGPKGPKGP[Hyp]GP[Hyp]GD[Hyp]GD[Hyp]GD[Hyp] (nT=11, printed without the last Gly) [3sb-OKD]
binding result (AUC, CD, self-assembly): binds

P[Hyp]GPKGPKGPKGPKGP[Hyp]GP[Hyp]GD[Hyp]GD[Hyp]GD[Hyp]GD[Hyp]GP[Hyp]GP[Hyp]GP[Hyp]G (nT=14) [4sbG-KDO2]
binding result [8]: binds
